From patent US20260055200A1, “COMBINATION THERAPIES” (Alligator Bioscience AB, priority 2022, published 2026)

Key:
[1] = OPTIMIZE-1 safety and tolerability (AEs, DLTs, RP2D; CTCAE v5.0); assay type: in vivo
Description: Two dose levels, 450 μg/kg and 900 μg/kg, of mitazalimab were planned to be administered in combination with mFOLFIRINOX in Part 1. During the first treatment cycle (the first 21 days) for each patient, mitazalimab was administered on Day 1 and Day 10 and mFOLFIRINOX infusion started on Day 8. During the following 14-day treatment cycles, mFOLFIRINOX was administered on Day 1 and mitazalimab on Day 3 of each cycle, see FIG. 3. In case the number of DLTs for a dose level fulfilled the stop criteria, see Table 3 Escalation rules based on number of patients with DLTs, at the lowest dose level of mitazalimab, the chemotherapy mFOLFIRINOX could be exchanged to the chemotherapy gemcitabine plus nab-paclitaxel, as illustrated in FIG. 2. If changing the chemotherapy from mFOLFIRINOX to gemcitabine plus nab-paclitaxel, see dosage schedule in Example 5.
The dose escalation in Part 1 follows a BOIN design with at least 3 evaluable patients per dose level. According to the BOIN design, each time a cohort of patients has been completed, a decision is made whether the next cohort should remain on the same dose, escalate to the next higher dose level or de-escalate to the next lower dose level, according to the decision rules presented in Table 3 below. A range of 3-9 patients was included at each dose level. In this study, the de-escalation from 450 μg/kg mitazalimab in combination with mFOLFIRINOX was a change of chemotherapy to gemcitabine plus nab-paclitaxel as previously described.
Mitazalimab in combination with mFOLFIRINOX: The DLT evaluation period is defined as the time from the first dose of mitazalimab (Day 1) until Day 21 in the first treatment cycle (Cycle 1). Mitazalimab in combination with gemcitabine plus nab-paclitaxel: The DLT evaluation period is defined as the time from the first dose of mitazalimab (Day 1) until Day 28 within the first treatment cycle of 35 days (Cycle 1). This period enabled the DRC to evaluate for early safety of mitazalimab together with the chemotherapy combination.
The same DLT criteria applied for mitazalimab in combination with mFOLFIRINOX and gemcitabine plus nab-paclitaxel. A DLT was considered related to study treatment unless there is a clear, well-documented, alternative explanation for the adverse event (AE). AEs that meet the above criteria but occur after the DLT evaluation period were not defined as DLTs, unless the onset of the event was during the DLT evaluation period. The event could be reported as AEs/Serious adverse events (SAEs), as applicable.
Number or patients experiencing AEs and number of events were summarized by SOC and preferred term. In addition, the following AEs were presented: • Incidence of DLT (Part 1); • AEs Grade 3 or higher; • Serious AEs; • AEs leading to discontinuation of study treatment; and • AEs leading to death.
The safety set comprised all patients that received any study treatment (mitazalimab) and was used for all endpoints related to the safety objectives.
The objective of the first (Phase 1b) part of the study was to determine the RP2D of mitazalimab+mFOLFIRINOX. Mitazalimab was escalated from 450 μg/kg to 900 μg/kg following a Bayesian optimal interval design with at least 3 patients enrolled per dose level. In the first 21-day treatment cycle (Dose Limiting Toxicity assessment period), mitazalimab was administered intravenously on days 1 and 10 and mFOLFIRINOX starts on day 8. In the second and subsequent cycles, treatment followed a 14-day cycle schedule where mitazalimab was administered 2 days after mFOLFIRINOX.

CD40 = molecular target: T1, CD40 (Homo sapiens, UniProt P25942); conditions: human monocyte-derived DC cultures; cited from earlier work
T1 construct: validated in vitro in human monocyte-derived DC cultures; endogenous in cells; host or cells: human monocyte-derived dendritic cells
T1 sequence (P25942 21-277): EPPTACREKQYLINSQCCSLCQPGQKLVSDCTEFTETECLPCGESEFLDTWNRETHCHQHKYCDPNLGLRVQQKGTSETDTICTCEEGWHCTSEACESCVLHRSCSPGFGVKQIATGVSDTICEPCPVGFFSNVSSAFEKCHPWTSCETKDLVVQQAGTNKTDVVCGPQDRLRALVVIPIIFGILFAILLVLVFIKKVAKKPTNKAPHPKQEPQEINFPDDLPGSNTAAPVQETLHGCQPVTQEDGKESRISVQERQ

[2] = system: tumour associated macrophages (TAMs); conditions: TAMs from human prostate and ovarian tumour samples; cited from earlier work

B1: Mitazalimab: agonistic, human monoclonal (IgG1) antibody targeting CD40 (antibody, chains of the INN, looked up, V domains shown)
VH: EVQLLESGGGLVQPGGSLRLSCAASGFTFSTYGMHWVRQAPGKGLEWLSYISGGSSYIFYADSVRGRFTISRDNSENALYLQMNSLRAEDTAVYYCARILRGGSGMDLWGQGTLVTVSS
VL: QSVLTQPPSASGTPGQRVTISCTGSSSNIGAGYNVYWYQQLPGTAPKLLIYGNINRPSGVPDRFSGSKSGTSASLAISGLRSEDEADYYCAAWDKSISGLVFGGGTKLTVL
AESIs ([1]; in vivo): None
DLTs ([1]; in vivo): G3 Headache
DLTs, % ([1]; in vivo): (9.1) %
Discontinued treatment: Unacceptable toxicity, percentage of patients ([1]; in vivo): (11.6) %
Discontinued treatment: Unacceptable toxicity, percentage relative to number discontinued ([1]; in vivo): 15.4%
Grade 1 or 2 TEAEs, % ([1]; in vivo): 81.8%
Grade 3 TEAEs, % ([1]; in vivo): 36.4%
Mitazalimab Related Adverse Events: Grade 1 or 2 TEAEs, % ([1]; in vivo): (72.7) %
Mitazalimab Related Adverse Events: Grade 3 TEAEs, % ([1]; in vivo): (9.1) %
Mitazalimab Related Adverse Events: patients with any TEAEs, % ([1]; in vivo): (72.7) %
Mitazalimab-related Grade 1-2 Fatigue ([1]; in vivo): 3
Mitazalimab-related Grade 1-2 Fever or similar ([1]; in vivo): 6
Mitazalimab-related Grade 3 Fatigue ([1]; in vivo): 2
Mitazalimab-related Grade 3 Headache ([1]; in vivo): 1
Mitazalimab-related Grade 3 Hypokalemia ([1]; in vivo): 1
Patients with any TEAEs, % ([1]; in vivo): 81.8%
Mitazalimab-related Grade 1-2 Flu/muscle ache ([1]; of 11 patients at 2 dose levels): 5
activation markers (CD80, CD86) on DCs and release of IL-12 (CD40): up-regulation of activation markers on the surface of DCs
polarization of TAMs (upregulation of e.g. CD83) [2]: from a more immune-suppressive phenotype into a more immune-inflammatory phenotype
